Measurements: publication PMC11258689, “A Snake Venom Peptide and Its Derivatives Prevent Aβ42 Aggregation and Eliminate Toxic Aβ42 Aggregates In Vitro” (ACS Chemical Neuroscience, 2024)
Non-standard residues stand in square brackets, D forms with d. No end group written: not given here.

Target: amyloid-β (1–42) (UniProt P05067)

B1: CDP-1D, D-enantiomeric form of CDP-1 (peptide)
peptide: Ac-[dK][dK][dC][dC][dK][dW][dR][dW][dR][dC][dD][dM][dK]
modifications: not fully specified (C-terminus); cysteine pairing not given here; also: methylated at the C-terminus
B1 showed a ThT fluorescence of Aβ42 aggregation (10 μM Aβ42, 28 μM peptide, 24 h); inhibition of the self-aggregation of Aβ42 of 100%.
